B1: Splicing factor 45 (Homo sapiens), Q96I25 (parent)
chain: MSLYDDLGVETSDSKTEGWSKNFKLLQSQLQVKKAALTQAKSQRTKQSTVLAPVIDLKRGGSSDDRQIVDTPPHVAAGLKDPVPSGFSAGEVLIPLADEYDPMFPNDYEKVVKRQREERQRQRELERQKEIEEREKRRKDRHEASGFARRPDPDSDEDEDYERERRKRSMGGAAIAPPTSLVEKDKELPRDFPYEEDSRPRSQSSKAAIPPPVYEEQDRPRSPTGPSNSFLANMGGTVAHKIMQKYGFREGQGLGKHEQGLSTALSVEKTSKRGGKIIVGDATEKDASKKSDSNPLTEILKCPTKVVLLRNMVGAGEVDEDLEVETKEECEKYGKVGKCVIFEIPGAPDDEAVRIFLEFERVESAIKAVVDLNGRYFGGRVVKACFYNLDKFRVLDLAEQV
partner: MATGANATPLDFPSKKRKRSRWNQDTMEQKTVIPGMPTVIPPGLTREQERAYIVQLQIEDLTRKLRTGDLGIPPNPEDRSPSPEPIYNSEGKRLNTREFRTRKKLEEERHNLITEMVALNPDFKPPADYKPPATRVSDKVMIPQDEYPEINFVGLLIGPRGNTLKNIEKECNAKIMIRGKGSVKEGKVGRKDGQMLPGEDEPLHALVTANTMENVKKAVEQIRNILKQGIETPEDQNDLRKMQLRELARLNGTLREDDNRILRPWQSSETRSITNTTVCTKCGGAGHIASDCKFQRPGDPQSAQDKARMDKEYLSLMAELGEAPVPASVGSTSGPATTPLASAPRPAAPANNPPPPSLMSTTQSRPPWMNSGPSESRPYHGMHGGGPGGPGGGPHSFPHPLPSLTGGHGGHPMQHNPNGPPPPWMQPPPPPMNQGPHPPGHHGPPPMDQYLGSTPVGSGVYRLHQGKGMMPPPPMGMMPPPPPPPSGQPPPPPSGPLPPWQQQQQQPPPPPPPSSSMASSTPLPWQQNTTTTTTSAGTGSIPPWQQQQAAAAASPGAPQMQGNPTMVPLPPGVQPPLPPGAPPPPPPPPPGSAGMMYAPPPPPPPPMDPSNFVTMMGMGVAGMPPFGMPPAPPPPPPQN
B2: Splicing factor 45 (Homo sapiens), Q96I25 (parent)
chain: B1 chain

Assays:
[1] = variants of: B1; conditions: with sf01_human SF1, Q15637
[2] = variants of: B2; conditions: with SF3B1, O75533-1
Sequence of SF3B1, O75533-1 (O75533 whole entry): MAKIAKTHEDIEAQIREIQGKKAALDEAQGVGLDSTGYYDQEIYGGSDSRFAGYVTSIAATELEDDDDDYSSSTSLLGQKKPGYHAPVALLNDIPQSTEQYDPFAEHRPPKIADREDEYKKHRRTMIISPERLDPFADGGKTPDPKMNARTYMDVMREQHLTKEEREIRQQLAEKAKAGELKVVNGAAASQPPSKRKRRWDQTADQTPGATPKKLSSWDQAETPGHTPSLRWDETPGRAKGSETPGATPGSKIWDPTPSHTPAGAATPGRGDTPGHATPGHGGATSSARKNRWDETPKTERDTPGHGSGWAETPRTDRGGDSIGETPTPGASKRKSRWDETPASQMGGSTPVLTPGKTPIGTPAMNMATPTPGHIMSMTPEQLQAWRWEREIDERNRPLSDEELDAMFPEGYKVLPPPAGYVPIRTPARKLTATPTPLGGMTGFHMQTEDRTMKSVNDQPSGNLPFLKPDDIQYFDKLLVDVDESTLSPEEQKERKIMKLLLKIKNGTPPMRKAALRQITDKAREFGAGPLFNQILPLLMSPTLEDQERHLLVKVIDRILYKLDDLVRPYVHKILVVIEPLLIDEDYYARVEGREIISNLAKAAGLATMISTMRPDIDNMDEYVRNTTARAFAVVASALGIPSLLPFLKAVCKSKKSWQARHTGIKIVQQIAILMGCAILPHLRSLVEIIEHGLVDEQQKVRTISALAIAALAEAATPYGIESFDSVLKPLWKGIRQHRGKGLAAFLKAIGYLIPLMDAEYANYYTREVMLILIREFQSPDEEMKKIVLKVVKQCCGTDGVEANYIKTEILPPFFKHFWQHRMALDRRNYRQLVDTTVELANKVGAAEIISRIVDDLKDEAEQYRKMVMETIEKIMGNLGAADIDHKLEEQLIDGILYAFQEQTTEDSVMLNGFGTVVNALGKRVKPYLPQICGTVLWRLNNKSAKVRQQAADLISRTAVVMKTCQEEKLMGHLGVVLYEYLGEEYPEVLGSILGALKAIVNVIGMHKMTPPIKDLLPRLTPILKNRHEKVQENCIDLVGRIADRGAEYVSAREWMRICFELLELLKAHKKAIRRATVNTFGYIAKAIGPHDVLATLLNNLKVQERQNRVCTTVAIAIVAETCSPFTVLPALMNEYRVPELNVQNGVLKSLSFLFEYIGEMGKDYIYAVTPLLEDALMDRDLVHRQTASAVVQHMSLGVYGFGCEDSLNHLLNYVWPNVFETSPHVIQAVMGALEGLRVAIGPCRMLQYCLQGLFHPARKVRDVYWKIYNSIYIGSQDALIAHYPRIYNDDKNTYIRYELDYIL

[3] = variants of: B2; conditions: with U2AF2, P26368
Sequence of U2AF2, P26368 (P26368 whole entry): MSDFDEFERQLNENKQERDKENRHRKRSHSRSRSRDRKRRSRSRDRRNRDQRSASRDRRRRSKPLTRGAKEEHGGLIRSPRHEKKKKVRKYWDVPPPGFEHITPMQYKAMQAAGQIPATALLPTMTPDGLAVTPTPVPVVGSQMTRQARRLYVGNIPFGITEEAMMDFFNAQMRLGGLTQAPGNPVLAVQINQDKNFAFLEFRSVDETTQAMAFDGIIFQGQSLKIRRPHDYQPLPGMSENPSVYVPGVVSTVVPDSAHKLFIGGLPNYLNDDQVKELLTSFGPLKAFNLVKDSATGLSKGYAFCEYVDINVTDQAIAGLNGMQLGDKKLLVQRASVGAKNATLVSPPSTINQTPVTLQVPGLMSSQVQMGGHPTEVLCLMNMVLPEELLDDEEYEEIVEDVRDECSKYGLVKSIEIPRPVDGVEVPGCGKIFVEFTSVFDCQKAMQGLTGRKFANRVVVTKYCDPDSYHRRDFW

| Variant | effect of a mutation on the interaction [1] | effect of a mutation on the interaction [2] | effect of a mutation on the interaction [3] |
| --- | --- | --- | --- |
| MSLYDDLGVETSDSKTEGWSKNFKLLQSQLQVKKAALTQAKSQRTKQSTVLAPVIDLKRGGSSDDRQIVDTPPHVAAGLKDPVPSGFSAGEVLIPLADEYDPMFPNDYEKVVKRQREERQRQRELERQKEIEEREKRRKDRHEASGFARRPDPDSDEDEDYERERRKRSMGGAAIAPPTSLVEKDKELPRDFPYEEDSRPRSQSSKAAIPPPVYEEQDRPRSPTGPSNSFLANMGGTVAHKIMQKYGFREGQGLGKHEQGLSTALSVEKTSKRGGKIIVGDATEKDASKKSDSNPLTEILKCPTKVVLLRNMVGAGEVAEDLEVETKEECEKYGKVGKCVIFEIPGAPDDEAVRIFLEFERVESAIKAVVDLNGRYFGGRVVKACFYNLDKFRVLDLAEQV [D319A] | disrupting interaction | – | – |
| MSLYDDLGVETSDSKTEGWSKNFKLLQSQLQVKKAALTQAKSQRTKQSTVLAPVIDLKRGGSSDDRQIVDTPPHVAAGLKDPVPSGFSAGEVLIPLADEYDPMFPNDYEKVVKRQREERQRQRELERQKEIEEREKRRKDRHEASGFARRPDPDSDEDEDYERERRKRSMGGAAIAPPTSLVEKDKELPRDFPYEEDSRPRSQSSKAAIPPPVYEEQDRPRSPTGPSNSFLANMGGTVAHKIMQKYGFREGQGLGKHEQGLSTALSVEKTSKRGGKIIVGDATEKDASKKSDSNPLTEILKCPTKVVLLRNMVGAGEVKEDLEVETKEECEKYGKVGKCVIFEIPGAPDDEAVRIFLEFERVESAIKAVVDLNGRYFGGRVVKACFYNLDKFRVLDLAEQV [D319K] | disrupting interaction | – | – |
| MSLYDDLGVETSDSKTEGWSKNFKLLQSQLQVKKAALTQAKSQRTKQSTVLAPVIDLKRGGSSDDRQIVDTPPHVAAGLKDPVPSGFSAGEVLIPLADEYDPMFPNDYEKVVKRQREERQRQRELERQKEIEEREKRRKDRHEASGFARRPDPDSDEDEDYERERRKRSMGGAAIAPPTSLVEKDKELPRDFPYEEDSRPRSQSSKAAIPPPVYEEQDRPRSPTGPSNSFLANMGGTVAHKIMQKYGFREGQGLGKHEQGLSTALSVEKTSKRGGKIIVGDATEKDASKKSDSNPLTEILKCPTKVVLLRNMVGAGEVDEDLEVETKEECEKYGKVGKCVIFEIPGAPDDEAVRIFLEFERVESAIKAVVDLNGRYAGGRVVKACFYNLDKFRVLDLAEQV [F377A] | – | disrupting interaction | decreasing interaction |
| MSLYDDLGVETSDSKTEGWSKNFKLLQSQLQVKKAALTQAKSQRTKQSTVLAPVIDLKRGGSSDDRQIVDTPPHVAAGLKDPVPSGFSAGEVLIPLADEYDPMFPNDYEKVVKRQREERQRQRELERQKEIEEREKRRKDRHEASGFARRPDPDSDEDEDYERERRKRSMGGAAIAPPTSLVEKDKELPRDFPYEEDSRPRSQSSKAAIPPPVYEEQDRPRSPTGPSNSFLANMGGTVAHKIMQKYGFREGQGLGKHEQGLSTALSVEKTSKRGGKIIVGDATEKDASKKSDSNPLTEILKCPTKVVLLRNMVGAGEVDEDLEVETKEECEKYGKVGKCVIFEIPGAPDDEAVRIFLEFERVESAIKAVVDLNGRAFGGRVVKACFYNLDKFRVLDLAEQV [Y376A] | – | disrupting interaction | – |
| MSLYDDLGVETSDSKTEGWSKNFKLLQSQLQVKKAALTQAKSQRTKQSTVLAPVIDLKRGGSSDDRQIVDTPPHVAAGLKDPVPSGFSAGEVLIPLADEYDPMFPNDYEKVVKRQREERQRQRELERQKEIEEREKRRKDRHEASGFARRPDPDSDEDEDYERERRKRSMGGAAIAPPTSLVEKDKELPRDFPYEEDSRPRSQSSKAAIPPPVYEEQDRPRSPTGPSNSFLANMGGTVAHKIMQKYGFREGQGLGKHEQGLSTALSVEKTSKRGGKIIVGDATEKDASKKSDSNPLTEILKCPTKVVLLRNMVGAGEVDEDLEVETKEQCEKYGKVGKCVIFEIPGAPDDEAVRIFLEFERVESAIKAVVDLNGRYFGGRVVKACFYNLDKFRVLDLAEQV [E329Q] | – | decreasing interaction | disrupting interaction |
| MSLYDDLGVETSDSKTEGWSKNFKLLQSQLQVKKAALTQAKSQRTKQSTVLAPVIDLKRGGSSDDRQIVDTPPHVAAGLKDPVPSGFSAGEVLIPLADEYDPMFPNDYEKVVKRQREERQRQRELERQKEIEEREKRRKDRHEASGFARRPDPDSDEDEDYERERRKRSMGGAAIAPPTSLVEKDKELPRDFPYEEDSRPRSQSSKAAIPPPVYEEQDRPRSPTGPSNSFLANMGGTVAHKIMQKYGFREGQGLGKHEQGLSTALSVEKTSKRGGKIIVGDATEKDASKKSDSNPLTEILKCPTKVVLLRNMVGAGEVKEDLEVETKEECEKYGKVGKCVIFEIPGAPDDEAVRIFLEFERVESAIKAVVDLNGRYFGGRVVKACFYNLDKFRVLDLAEQV [D319K] | – | disrupting interaction | disrupting interaction |
| MSLYDDLGVETSDSKTEGWSKNFKLLQSQLQVKKAALTQAKSQRTKQSTVLAPVIDLKRGGSSDDRQIVDTPPHVAAGLKDPVPSGFSAGEVLIPLADEYDPMFPNDYEKVVKRQREERQRQRELERQKEIEEREKRRKDRHEASGFARRPDPDSDEDEDYERERRKRSMGGAAIAPPTSLVEKDKELPRDFPYEEDSRPRSQSSKAAIPPPVYEEQDRPRSPTGPSNSFLANMGGTVAHKIMQKYGFREGQGLGKHEQGLSTALSVEKTSKRGGKIIVGDATEKDASKKSDSNPLTEILKCPTKVVLLRNMVGAGEVDEDLEVETKEECEKYGKVGKCVIFEIPGAPDDEAVRIFLEFERVESAIKAVVDLNGDYFGGRVVKACFYNLDKFRVLDLAEQV [R375D] | – | – | disrupting interaction |
| MSLYDDLGVETSDSKTEGWSKNFKLLQSQLQVKKAALTQAKSQRTKQSTVLAPVIDLKRGGSSDDRQIVDTPPHVAAGLKDPVPSGFSAGEVLIPLADEYDPMFPNDYEKVVKRQREERQRQRELERQKEIEEREKRRKDRHEASGFARRPDPDSDEDEDYERERRKRSMGGAAIAPPTSLVEKDKELPRDFPYEEDSRPRSQSSKAAIPPPVYEEQDRPRSPTGPSNSFLANMGGTVAHKIMQKYGFREGQGLGKHEQGLSTALSVEKTSKRGGKIIVGDATEKDASKKSDSNPLTEILKCPTKVVLLRNMVGAGEVDEDLEVETKEECEKYGKVGKCVIFEIPGAPDDEAVRIFLEFERVESAIKAVVDLNGAYFGGRVVKACFYNLDKFRVLDLAEQV [R375A] | – | disrupting interaction | disrupting interaction |
| MSLYDDLGVETSDSKTEGWSKNFKLLQSQLQVKKAALTQAKSQRTKQSTVLAPVIDLKRGGSSDDRQIVDTPPHVAAGLKDPVPSGFSAGEVLIPLADEYDPMFPNDYEKVVKRQREERQRQRELERQKEIEEREKRRKDRHEASGFARRPDPDSDEDEDYERERRKRSMGGAAIAPPTSLVEKDKELPRDFPYEEDSRPRSQSSKAAIPPPVYEEQDRPRSPTGPSNSFLANMGGTVAHKIMQKYGFREGQGLGKHEQGLSTALSVEKTSKRGGKIIVGDATEKDASKKSDSNPLTEILKCPTKVVLLRNMVGAGEVAAALEVETKEECEKYGKVGKCVIFEIPGAPDDEAVRIFLEFERVESAIKAVVDLNGRYFGGRVVKACFYNLDKFRVLDLAEQV [D319A;E320A;D321A] | – | disrupting interaction strength | disrupting interaction strength |

Source: IntAct's records for PubMed 17589525
